This is an account of results in publication PMC6191538.

For this assay, the target named is Hoc- Soc- phage T4 particles (capsid) (phage T4) (UniProt P13332). Description: co-sedimentation.

With Soc-PA (93 kDa), the BC50 (half-maximal binding concentration) turned out to be 1140 nM.
